*1 amine or outer side, *2 acyl side, *3 side chain or, on linkers, in order; H or OH if unused. Where no end group is shown, it is not given here. [ ]: non-standard residue; d: D form. Suc = O=C(CCC(=O)[*:2])[*:1] Bounds are passed on as bounds.

Assay [1] has as its target T1, IZN17 (peptide 11, AcIKKEIEAIKKEQEAIKKKIEAIEKLLQLTVWGIKQLQARIL-NH2) (N-terminal acetyl (Ac); C-terminal amide (NH2)).
T1 construct: also called peptide IZN17; 1ZN17
T1 chain: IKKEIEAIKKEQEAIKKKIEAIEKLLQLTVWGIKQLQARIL
Nature of the assay: fluorescence polarization competition, displacement of peptide 12 from IZN17.

The target of assay [2] is HIV-1 HXB2 envelope (gp41) expressed on CHO[HIVe] (clone 7d2) cells (HIV-1 (HXB2), UniProt P04578 512-856). The assay can be described thus: cell-based or functional assay.
Chain of HIV-1 HXB2 envelope (gp41) expressed on CHO[HIVe] (clone 7d2) cells (P04578 512-856): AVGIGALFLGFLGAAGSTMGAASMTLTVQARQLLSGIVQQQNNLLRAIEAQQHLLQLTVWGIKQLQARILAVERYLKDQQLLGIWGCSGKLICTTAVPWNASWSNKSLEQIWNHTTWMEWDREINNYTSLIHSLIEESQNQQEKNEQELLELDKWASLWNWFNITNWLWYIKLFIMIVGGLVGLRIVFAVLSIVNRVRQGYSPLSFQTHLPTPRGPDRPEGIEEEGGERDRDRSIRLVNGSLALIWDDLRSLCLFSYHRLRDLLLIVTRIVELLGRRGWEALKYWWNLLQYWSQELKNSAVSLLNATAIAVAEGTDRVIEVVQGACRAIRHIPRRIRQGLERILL
In assay [3] the target is T1, IZN17 (peptide 11, …). The assay can be described thus: fluorescence polarization competition, displacement of peptide 12 from IZN17; upper limit of the assay. (In general: In fluorescence polarisation assays a small probe gives low polarisation when free and higher when bound to something large.)
The target in assay [4] is T1, IZN17 (peptide 11, …). The assay can be described thus: fluorescence polarization competitive binding assay with peptide 12 as probe.
The target in assay [5] is T1, IZN17 (peptide 11, …). Nature of the assay: fluorescence polarization competition, displacement of peptide 12 from IZN17; value inexact because the peptide aggregates.
For assay [6], the target named is T1, IZN17 (peptide 11, …). Nature of the assay: fluorescence polarization competition, displacement of peptide 12 from IZN17; compared with peptide 1.
Assay [7] concerns the target T1, IZN17 (peptide 11, …). Nature of the assay: fluorescence polarization, direct saturation binding of fluorescein-labeled peptide 12 to IZN17, PBS, 25° C.

B1: Peptide 10 (AcMTWEEWDKKIEEYTKKI-NH2) (peptide)
peptide: Ac-MTWEEWDKKIEEYTKKI-NH2
notes: Unconstrained counterpart of HBS α-helix 9; also called unconstrained peptide 10
Take B1: the binding result with IZN17 (peptide 11, …) [1] is “binds”.

B2: HBS α-helix 9 (XMTWEEWDKKIEEYTKKI) (peptide)
peptide: XMTWEEWDKKIEEYTKKI
modifications: X at position 1 is a pentenoic acid residue; internally-constrained α-helical region (hydrogen bond surrogate, carbon-carbon bond by ring-closing metathesis) spanning residues 1 through 4 of SEQ ID NO: 9
notes: also called peptide 9
B2: the “inhibition of gp41-mediated cell-cell fusion (syncytium formation, β-galactosidase activity), EC50” value in assay [2] turned out to be 43 µM. Also, in the assay with IZN17 (peptide 11, …) [3], the Kd (commonly the free concentration of one partner at which half of the binding sites on the other are occupied at equilibrium, for simple one-to-one binding) is < 5 µM.

B3: HBS α-helix 3 (XWAAWDKKI) (peptide)
peptide: XWAAWDKKI
modifications: X at position 1 is a pentenoic acid residue; N-terminal hydrogen bond surrogate (carbon-carbon bond by ring-closing metathesis in place of an i and i+4 hydrogen bond)
notes: Shortest designed peptide with the Trp/Trp/Ile motif; also called peptide 3
Take B3: the binding result with IZN17 (peptide 11, …) [4] is reported as “no binding”. The “inhibition of gp41-mediated cell-cell fusion (syncytium formation, β-galactosidase activity)” value in assay [2] was > 200.

B4: Peptide 1 (AcMTWMEWDREINNYT-NH2), 14-residue C-peptide derived from gp41 (peptide)
peptide: Ac-MTWMEWDREINNYT-NH2
notes: Unconstrained parent peptide; also called unconstrained C-peptide
With B4, the Kd with IZN17 (peptide 11, …) [5] was determined as 37 µM.

B5: HBS α-helix 5 (XWAAWDREINNYT) (peptide)
peptide: XWAAWDREINNYT
modifications: X at position 1 is a pentenoic acid residue; N-terminal hydrogen bond surrogate (carbon-carbon bond by ring-closing metathesis in place of an i and i+4 hydrogen bond)
notes: Similar to 1 and 2 but missing N-terminal Met-626 and Thr-627; also called peptide 5
As to B5, in the assay with IZN17 (peptide 11, …) [4], the binding result is “no binding”. The “inhibition of gp41-mediated cell-cell fusion (syncytium formation, β-galactosidase activity)” value in assay [2] was > 200.

B6: HBS α-helix 4 (XAAAWEEWDKKI) (peptide)
peptide: XAAAWEEWDKKI
modifications: X at position 1 is a pentenoic acid residue; N-terminal hydrogen bond surrogate (carbon-carbon bond by ring-closing metathesis in place of an i and i+4 hydrogen bond)
notes: Trp/Trp/Ile motif lies outside of the constraint; also called peptide 4
Regarding B6, the binding result with IZN17 (peptide 11, …) [4] is listed as “no binding”. Also, the “inhibition of gp41-mediated cell-cell fusion (syncytium formation, β-galactosidase activity)” value in assay [2] was > 200.

B7: HBS α-helix 8 (XNEMTWEEWDKKIEEYT) (peptide)
peptide: XNEMTWEEWDKKIEEYT
modifications: X at position 1 is a pentenoic acid residue; N-terminal hydrogen bond surrogate (carbon-carbon bond by ring-closing metathesis in place of an i and i+4 hydrogen bond)
notes: also called peptide 8
Consider B7, for which the “inhibition of gp41-mediated cell-cell fusion (syncytium formation, β-galactosidase activity)” value in assay [2] is > 200. Also, the Kd in the assay with IZN17 (peptide 11, …) [3] was < 5 µM.

B8: HBS α-helix 2 (XMTWMEWDREINNYT) (peptide)
peptide: [Pentenoic acid]MTWMEWDREINNYT
modifications: staple (positions not given here); not fully specified (C-terminus, bridges)
notes: HBS-constrained form of peptide 1; made on Rink amide resin; also called peptide 2
In the case of B8, in the assay with IZN17 (peptide 11, …) [6], the binding result is recorded as “binds”. Moreover, the “inhibition of gp41-mediated cell-cell fusion (syncytium formation, β-galactosidase activity)” value in assay [2] is > 200.

B9: HBS α-helix 6 (XMTWEEWDKKIEEYT) (peptide)
peptide: XMTWEEWDKKIEEYT
modifications: X at position 1 is a pentenoic acid residue; N-terminal hydrogen bond surrogate (carbon-carbon bond by ring-closing metathesis in place of an i and i+4 hydrogen bond)
notes: also called peptide 6
On to B9, for which, in the assay with IZN17 (peptide 11, …) [1], the binding result was “binds”. For the same molecule, the “inhibition of gp41-mediated cell-cell fusion (syncytium formation, β-galactosidase activity)” value in assay [2] was > 200.

B10: HBS α-helix 7 (XEMAWEEWDKKIEEYT) (peptide)
peptide: XEMAWEEWDKKIEEYT
modifications: X at position 1 is a pentenoic acid residue; N-terminal hydrogen bond surrogate (carbon-carbon bond by ring-closing metathesis in place of an i and i+4 hydrogen bond)
notes: Thr-627 replaced with alanine; a glutamic acid added at the N-terminus; also called peptide 7
As to B10, the “fold lower affinity than HBS α-helix 6” value in the assay with IZN17 (peptide 11, …) [1] turned out to be 20 fold. The “inhibition of gp41-mediated cell-cell fusion (syncytium formation, β-galactosidase activity)” value in assay [2] was > 200.

B11: Fluorescein-labeled peptide 12 (suc-MTWMEWDREINNYTC^Flu) (peptide)
peptide: Suc-MTWMEWDREINNYTC(fluorescein)-NH2
notes: also called fluorescent probe 12; fluorescein-labeled C-peptide derivative
B11 registered a Kd with IZN17 (peptide 11, …) [7] of 24 µM.
